According to the supplement of paper PMC11246515:
± gives the standard deviation of the averaged measurements.

Assay: total protein half-life in vivo (active degradation + dilution); higher = more stable protein
[1] = E. coli NCM3722 delta-clpP delta-lon delta-hslV, growth: N-lim chemostat, doubling time 6 h
[2] = wild type E. coli NCM3722, growth: C-lim chemostat, doubling time 3 h
[3] = wild type E. coli NCM3722, growth: C-lim chemostat, doubling time 6 h
[4] = wild type E. coli NCM3722, growth: C-lim chemostat, doubling time 12 h
[5] = wild type E. coli NCM3722, growth: P-lim chemostat, doubling time 6 h
[6] = wild type E. coli NCM3722, growth: P-lim chemostat, doubling time 12 h
[7] = E. coli NCM3722 delta-clpP, growth: N-lim chemostat, doubling time 6 h
[8] = E. coli NCM3722 delta-hslV, growth: N-lim chemostat, doubling time 6 h
[9] = E. coli NCM3722 delta-lon, growth: N-lim chemostat, doubling time 6 h
[10] = E. coli NCM3722 delta-smpB, growth: N-lim chemostat, doubling time 6 h
[11] = wild type E. coli NCM3722, growth: N-lim chemostat, doubling time 6 h
[12] = wild type E. coli NCM3722, growth: N-lim chemostat, doubling time 12 h

Sequence	total protein half-life in vivo [1] [h]	total protein half-life in vivo [2] [h]	total protein half-life in vivo [3] [h]	total protein half-life in vivo [4] [h]	total protein half-life in vivo [5] [h]	total protein half-life in vivo [6] [h]	total protein half-life in vivo [7] [h]	total protein half-life in vivo [8] [h]	total protein half-life in vivo [9] [h]	total protein half-life in vivo [10] [h]	total protein half-life in vivo [11] [h]	total protein half-life in vivo [12] [h]
MKDVVIVGALRTPIGCFRGALAGHSAVELGSLVVKALIERTGVPAYAVDEVILGQVLTAGAGQNPARQSAIKGGLPNSVSAITINDVCGSGLKALHLATQAIQCGEADIVIAGGQENMSRAPHVLTDSRTGAQLGNSQLVDSLVHDGLWDAFNDYHIGVTAENLAREYGISRQLQDAYALSSQQKARAAIDAGRFKDEIVPVMTQSNGQTLVVDTDEQPRTDASAEGLARLNPSFDSLGSVTAGNASSINDGAAAVMMMSEAKARALNLPVLARIRAFASVGVDPALMGIAPVYATRRCLERVGWQLAEVDLIEANEAFAAQALSVGKMLEWDERRVNVNGGAIALGHPIGASGCRILVSLVHEMVKRNARKGLATLCIGGGQGVALTIERDE	5.29 ± 0.14	1.35 ± 0.2	2.66 ± 0.38	3.57 ± 0.4	0.858	2 ± 0.37						
MSCPVIELTQQLIRRPSLSPDDAGCQALLIERLQAIGFTVERMDFADTQNFWAWRGQGETLAFAGHTDVVPPGDADRWINPPFEPTIRDGMLFGRGAADMKGSLAAMVVAAERFVAQHPNHTGRLAFLITSDEEASAHNGTVKVVEALMARNERLDYCLVGEPSSIEVVGDVVKNGRRGSLTCNLTIHGVQGHVAYPHLADNPVHRAAPFLNELVAIEWDQGNEFFPATSMQIANIQAGTGSNNVIPGELFVQFNFRFSTELTDEMIKAQVLALLEKHQLRYTVDWWLSGQPFLTARGKLVDAVVNAVEHYNEIKPQLLTTGGTSDGRFIARMGAQVVELGPVNATIHKINECVNAADLQLLARMYQRIMEQLVA [P0AED7]	4.94 ± 0.53	3.05 ± 0.25	5.7 ± 0.46	9.7 ± 0.28	5.6 ± 0.48	11 ± 1.8	4.52 ± 0.093	4.42 ± 0.081	5.76 ± 1.5	4.4 ± 0.41	4.418 ± 0.036	7.37 ± 0.72
MTLLGTALRPAATRVMLLGSGELGKEVAIECQRLGVEVIAVDRYADAPAMHVAHRSHVINMLDGDALRRVVELEKPHYIVPEIEAIATDMLIQLEEEGLNVVPCARATKLTMNREGIRRLAAEELQLPTSTYRFADSESLFREAVADIGYPCIVKPVMSSSGKGQTFIRSAEQLAQAWKYAQQGGRAGAGRVIVEGVVKFDFEITLLTVSAVDGVHFCAPVGHRQEDGDYRESWQPQQMSPLALERAQEIARKVVLALGGYGLFGVELFVCGDEVIFSEVSPRPHDTGMVTLISQDLSEFALHVRAFLGLPVGGIRQYGPAASAVILPQLTSQNVTFDNVQNAVGADLQIRLFGKPEIDGSRRLGVALATAESVVDAIERAKHAAGQVKVQG	5.17 ± 0.51	3.033 ± 0.014	5.96 ± 0.31	10.2 ± 0.59	6.14 ± 0.1	10.1 ± 0.19	4.76 ± 0.66	4.361 ± 0.017	4.5 ± 0.32	4.11 ± 0.3	4.28 ± 0.2	6.95 ± 0.21
MSKPAITLWSDAHFFSPYVLSAWVALQEKGLSFHIKTIDLDSGEHLQPTWQGYGQTRRVPLLQIDDFELSESSAIAEYLEDRFAPPTWERIYPLDLENRARARQIQAWLRSDLMPIREERPTDVVFAGAKKAPLTAEGKASAEKLFAMAEHLLVLGQPNLFGEWCIADTDLALMINRLVLHGDEVPERLVDYATFQWQRASVQRFIALSAKQSG	4.94 ± 0.39	2.97 ± 0.081	5.9 ± 0.35	9.65 ± 1.6	5.764 ± 0.044	12.5 ± 0.95	5.5 ± 1.7	4.804 ± 0.025	5.18 ± 0.9	4.79 ± 0.39	4.86 ± 0.41	8.65 ± 0.19
